Six molecules from US11466286B2, “Methods and compositions for conferring and/or enhancing herbicide tolerance using protoporphyrinogen oxidase or variant thereof” (FarmHannong Co., Ltd., priority 2016, dated 2022) can be followed below.

Substitutions are numbered along the chain they refer to. Names and notes keep the numbering of the source.

Assay [1] relates to A. thaliana T3 lines with CyPPO10 wild type or mutants (F360M, F360I, F360L, F360C, A167C), CyPPO13 wild type or mutants (F373M, F373C, F373I, A177C …). Put plainly: Seed germination of A. thaliana transformants on herbicide media. Format: in vivo, Arabidopsis thaliana. The note with it: 25 μM glufosinate, 7 days after sowing.
Assay [2] deals with BT3 (ΔPPO) E. coli with CyPPO10m-6 (E225G, G258S, Q266L, T336I, V356F, F360M, A364D, R406G, W419R; SEQ ID NO: 131). Put plainly: Growth of BT3 with error-prone PCR mutant of CyPPO10. Format: cell-based. The note with it: up to 200 μM herbicide.
For assay [3], the system named is CyPPO13 (Synechococcus sp. JA-3-3Ab PPO, SEQ ID NO: 4) variant F373I, MBP fusion. Nature of the assay: PPO inhibition assay. Format: biochemical. The conditions noted are these: herbicide 0-5,000 nM, 50 μM substrate. Here is the method: (§1) The enzyme activities of PPO protein and PPO protein variants were examined, and inhibition assay by PPO-inhibiting herbicides was conducted. It was confirmed that the PPO protein has low water-solubility, but in case of being expressed as a fusion protein with MBP (maltose binding protein) (MBP-PPO), the PPO protein is able to be stably expressed as water-soluble form. Therefore, the wild type and variant proteins which were expressed in the form of fusion protein with MBP were used in the present test (refer to FIG. 4).
(§2) At first, a substrate of PPO protein, Protoporphyrinogen IX was synthesized. This process was performed in the space where nitrogen gas is streamed. 6 mg of protoporphyrin IX was dissolved in 20% (v/v) EtOH 20 ml, and stirred under dark condition for 30 minutes. The obtained protoporphyrinogen IX solution was put into a 15 ml screw tube in an amount of 800 and flushed with nitrogen gas for 5 minutes. To this, 1 g of sodium amalgam was added and vigorous shaking was performed for 2 minutes. The lid was open to exhaust hydrogen gas in the tube. Thereafter, the lid was closed and incubated for 3 minutes. The […] was filtered using syringe and cellulose membrane filter. To 600 μl of the obtained […], 2M MOPS [3-(N-morpholino)propanesulfonic acid] was added in an amount of approximately 300 thereby adjusting pH to 8.0. To determine the enzyme activity of PPO protein, a reaction mixture was prepared with the following composition (based on 10 ml): 50 mM Tris-Cl (pH 8.0); 50 mM NaCl; 0.04% (v/v) Tween 20; 40 mM glucose (0.072 g); 5 units glucose oxidase (16.6 mg); and 10 units catalase (1 μl).
(§3) Two hundred microliters (200 μl) of reaction mixture containing a purified PPO protein were placed in 96 well plates, and preincubated for 30 min at room temperature to reduce the oxygen concentration by the reaction of glucose oxidase-catalase. The mineral oil was layered and then the reaction was initiated by adding the substrate, […], to a final concentration of 50 μM. The reaction proceeded at room temperature for 30 min and the fluorescence of protoporphyrin IX was measured using Microplate reader (Sense, Hidex) (excitation: 405 nm; emission: 633 nm). To calculate the PPO enzyme activity, protoporphyrinogen IX solution was kept open in the air to oxidize the solution (overnight). To this, 2.7N HCl was added, and the absorbance at 408 nm was measured. A standard curve was generated using standard protoporphyrin IX, and the PPO activity was measured by calibration of protoporphyrin IX using the standard curve of protoporphyrin IX.
(§4) The final concentration of each herbicide was as follows: […]

Assay [4] relates to CyPPO13 (Synechococcus sp. JA-3-3Ab PPO, SEQ ID NO: 4) variant F373L, MBP fusion. Nature of the assay: PPO inhibition assay. The note with it: herbicide 0-5,000 nM, 50 μM substrate. Format: biochemical. Here is the method:
as §1, §2, §3, §4

Assay [5] has as its system CyPPO13 (Synechococcus sp. JA-3-3Ab PPO, SEQ ID NO: 4) variant F373M, MBP fusion. Nature of the assay: PPO inhibition assay. Format: biochemical. The conditions noted are these: herbicide 0-5,000 nM, 50 μM substrate.
In assay [6] the test system is soybean transformed with CyPPO10 A167L+F360M. Put plainly: Herbicide tolerance of soybean. The conditions noted are these: T1, 150 μM saflufenacil spray, 5 days. Format: in vivo.
Assay [7] deals with A. thaliana. Put plainly: Seed germination of A. thaliana transformants on ½ MS media containing herbicides. Format: in vivo, Arabidopsis thaliana. The note with it: T3 lines; 25 μM glufosinate, 25 μM glufosinate+70 nM tiafenacil, or 25 μM glufosinate+30 nM tiafenacil+40 nM saflufenacil; 7 days after sowing. From the text:
T3 generation seeds of each transformant were sown in ½ MS media containing herbicides. Col-0 ecotype (wild type Arabidopsis) seeds were used as a control. The kinds of herbicides and concentration are as follows:
In FIGS. 31a to 31c, 10-3 refers to CyPPO10 wild type, 10FM-4-7 to the CyPPO10 F360M transgenic line, 10FL-1-9 to the CyPPO10 F360L transgenic line, 10FC-3-5 to the CyPPO10 F360C transgenic line, 10AC-5-4 to the CyPPO10 A167C transgenic line, 13-1 to CyPPO13 wild type, 13FM-3-1 to the CyPPO13 F373M transgenic line, 13FC-1-1 to the CyPPO13 F373C transgenic line, 13FI-2-1 to the CyPPO13 F373I transgenic line, 13AC-1-3 to the CyPPO13 A177C transgenic line, CyPPO13_ALFL to the CyPPO13 A177L+F373L transgenic line, and CyPPO13_ALFI to the CyPPO13 A177L+F373I transgenic line, respectively.

Assay [8] concerns PPO-deficient BT3 E. coli (ΔPPO). Put plainly: Tiafenacil tolerance of BT3 E. coli transformed with CyPPO10, CyPPO13 or AtPPO1 genes (pACBB vector). The conditions noted are these: tiafenacil 0 μM; PPO function complementation. Format: cell-based. Here is the method:
After transforming PPO-deficient BT3 E. coli (ΔPPO) with CyPPO10 or CyPPO13, the transformed BT3 (ΔPPO) was cultured on LB agar plates containing PPO-inhibiting herbicide to examine the growth level of the transformed BT3 (ΔPPO). BT3 (ΔPPO) strain was obtained from Hokkaido University (Japan). The BT3 (ΔPPO) strain is deficient in hemG-type PPO and has kanamycin tolerance (refer to “Watanabe et al., Dual targeting of spinach protoporphyrinogen oxidase II to mitochondria and chloroplasts by alternative use of two in-frame […], JBC 2001 276(23):20474-20481; Che et al., Molecular Characterization and Subcellular Localization of Protoporphyrinogen Oxidase in Spinach Chloroplasts, Plant Physiol. 2000 September; 124(1):59-70”).
The cloned plasmid was added to 100 μl of BT3 competent cell (Hokkaido University; Japan) respectively, thereby transforming by a heat shock method. The transformed E. coli with each PPO gene was cultured in LB (Luria-Bertani) agar media comprising Chloramphenicol (Duchefa).
For seed culture of E. coli transformed with respective genes, each single colony of E. coli transformant as provided above was cultured in 3 ml of LB broth containing chloramphenicol overnight (220 rpm, 37° C.), and 50 to 100 μl were subcultured in a new 3 ml of LB broth, and they were cultured until absorbance (OD600) became 0.5 to 1, and they were diluted with LB broth to absorbance (OD600) of 0.5. The diluted solution was serially diluted again 5 times by a factor of one tenth with LB broth. […] The LB Agar media were incubated at 37° C., under light condition, and level of inhibiting growth was observed after 16 to 20 hours of incubation.
Plant physiol. 2003 133:736-747).

In another assay the test system is CyPPO10. Put plainly: PPO enzyme activity and IC50 by herbicides, CyPPO10 wild type and variants (MBP-PPO fusion). Format: biochemical, Thermosynechococcus elongatus BP-1. The conditions noted are these: PPO enzyme activity of CyPPO10 protein, wild type = 100. Summed up:
(§5)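 Activity was read as protoporphyrin IX fluorescence (405/633 nm), calibrated with a protoporphyrin IX standard curve, after 30 min at room temperature with 50 μM substrate under mineral oil. The buffer was 50 mM Tris-Cl pH 8.0 with glucose oxidase/catalase and a 30 min preincubation. Enzymes were purified MBP-PPO fusions of CyPPO10 or CyPPO13, wild type and variants, expressed in E. coli.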

The subject of assay [9] is A. thaliana. Nature of the assay: Herbicide spray on A. thaliana transformants, injury level judged at the 7th day. Format: in vivo, Arabidopsis thaliana. The conditions noted are these: A. thaliana transformants T2, tiafenacil 25 μM spray.
A further assay has as its system CyPPO13. Put plainly: PPO enzyme activity and IC50 by herbicides, CyPPO13 wild type and variants (MBP-PPO fusion). Format: biochemical, Synechococcus sp. JA-3-3Ab. The note with it: PPO enzyme activity of CyPPO13 protein, wild type = 100. Summed up:
as §5

With `CP(=O)(O)CCC(N)C(=O)O` (stereo not shown) [glufosinate], in assay [1], the seed germination result is on record as “germinated”.
For the molecule `CC(C)N(C)S(=O)(=O)NC(=O)c1cc(-n2c(=O)cc(C(F)(F)F)n(C)c2=O)c(F)cc1Cl` [Saflufenacil], the cell viability result in [2] was “cell viability similar to that of cells with wild type CyPPO10”. For the same molecule, the figures for the half-maximal inhibitory concentration (IC50) in [3], in assay [4] and in assay [5] were 1480 nM, 1470 nM and 481 nM, respectively. In [6], the damage level result is reported as “no damage”.

B1: CyPPO10 WT: PPO protein derived from Thermosynechococcus elongatus BP-1, amino acid sequence SEQ ID NO: 2 (protein)
chain: MIEVDVAIVGGGLSGLSVAWRLQRSAPHYSGVLLEASDRLGGNITTQAAEGFVWELGPNSFAPTPALLQLIAEVGLHSELIRGDRHLPRYIYWRGELYPLEPTRPLALATSNLLSPWGKVRAALGALGFVPPYLGSGDESVDSFFRRHLGQEVAERLVAPFVSGVYAGDPQQLSAAAAFRRIAQLEKLGGSLIAGALRLRRQQPPQPKPPAQVQMRPGELGSFREGLAALPRAIAQQLKAPLHLQTPVEAITPEPKGGYLLRSGEQTWHARSVVLATPAYQTAELVAPFQPAIARALATIPYPTVACVVLAYPAGLGRSVRPGFGVLVPRGQGIRTLGTIWSSCLFPQRTPAGWQVFTSFIGGATDPDLASLREEAIVEQVQQDLTRLLDLPAAKARLLGMKVWRRAIPQYIVGYPQQWQQVTHALTQTPGLFLCSNYAEGVALGDRVEHGNRTAAAVAAYLAGGQS
modifications: Synthetic CyPPO10
For B1, in the assay on A. thaliana [7], the “Seed germination in media containing herbicides” value is “germinated”. Besides, the “Growth of BT3 transformant on medium containing no herbicide” value in assay [8] is on record as “recovered”. Moreover, the “Activity (%)” value in the assay with CyPPO10 is listed as 100%.

B2: CyPPO10 A167L + F360M: CyPPO10 (SEQ ID NO: 2) PPO variant (protein)
chain: B1 chain with A167L, F360M
modifications: Synthetic CyPPO10
For the molecule B2, the Average injury index in the assay on A. thaliana [9] is 2 (Over 20% and less than 30% of the plant was scorched). The “Activity (%)” value in the assay with CyPPO10 was found to be 80%.

B3: CyPPO10 A167C + F360I: CyPPO10 (SEQ ID NO: 2) PPO variant (protein)
chain: B1 chain with A167C, F360I
modifications: Synthetic CyPPO10
In the case of B3, the Average injury index with A. thaliana [9] was 2 (Over 20% and less than 30% of the plant was scorched). Besides, the “Activity (%)” value in the assay with CyPPO10 is 48%.

B4: CyPPO13 WT: PPO derived from Synechococcus sp. JA-3-3Ab strain, amino acid sequence SEQ ID NO: 4 (protein)
chain: MNPATPEPLNAEVVVIGAGISGLTLAWRLQQGLSARGGSPQAVLLAEASSRVGGCISTQSKDGYRWEEGPNSFTPTPALLNLIAEVGLTDQLVLADAKLPRYIYWEGALLPVPLSPAAALGSRLLSVGGKLRALQGLLGFVPPPPGHEETVRQFFRRQLGSEVAERLVEPFTSGVYAGDPDQLSAVAAFPRVAGLEERYGSLFAGALQALRQRPQPSPAAIQPPPKRGQLGNLRQGLQQLPEALAQKLGDSLRLGWRALQLKRAGELYWVGFETPEGSRWVAARQVVLALPAYEAAALLQELNPPASQLLAEILYPPVAVVALAYPQEALPQPLRGFGHLIPRSQGLRTLGTIWASCLFPERAPQGYHSFLSFLGGATDAALARRRGIPPIPALSPEERAQIAHAELSQVLLTRRAEPVYLGERLWPRAIPQYTLGHRQRIAQVQAHLASQTPGIWVCANYLDGVALGDCVRRAEALAQQLLSQV
modifications: Synthetic CyPPO13
For the molecule B4, the “Seed germination in media containing herbicides” value in the assay with A. thaliana [7] is reported as “germinated”. Also, the “Growth of BT3 transformant on medium containing no herbicide” value in assay [8] is “recovered”. Also, in the assay with CyPPO13, the “Activity (%)” value stood at 100%.

What is called IC50 is the concentration needed to halve the response being measured. Lower therefore signals greater potency.
